Reference: patent US8530235B2, “Medium that supports culture of an oocyte and modulation of granulosa cell apoptosis” (Adelaide Research & Innovation Pty Ltd., priority 2005, dated 2013)

B1: GDF-9: Recombinant mouse GDF-9 produced in-house in transfected 293H cells, partially purified by HIC (protein, UniProt Q07105 307-441, looked up)
Growth/differentiation factor …: GQKAIRSEAKGPLLTASFNLSEYFKQFLFPQNECELHDFRLSFSQLKWDNWIVAPHRYNPRYCKGDCPRAVRHRYGSPVHTMVQNIIYEKLDPSVPRPSCVPGKYSPLSVLTIEPDGSIAYKEYEDMIATRCTCR
B2: BMP-15: Recombinant ovine BMP-15 produced in-house in transfected 293H cells, partially purified by hydrophobic interaction chromatography; dosed as % v/v (protein, UniProt Q9MZE2 269-393, looked up)
Bone morphogenetic protein 15: QAGSIASEVPGPSREHDGPESNQCSLHPFQVSFQQLGWDHWIIAPHLYTPNYCKGVCPRVLHYGLNSPNHAIIQNLVSELVDQNVPQPSCVPYKYVPISILLIEANGSILYKEYEGMIAQSCTCR

Test system: cumulus-oocyte complexes
Experiment: Study IV: oocyte developmental competence after IVM, IVF and embryo culture
Type: cell-based, Bovine
Conditions: for blastocyst yields with exogenous factor / effect on cleavage rate: Experiments 3 & 4; for blastocyst yields with exogenous factor: 175 ng/ml GDF9 or 10% v/v BMP15; for effect on cleavage rate: 4 μM SB-431542, 175 ng/ml GDF9, 10% v/v BMP15, 10% v/v 293H
Experimental: Unless otherwise specified, all chemicals and reagents were purchased from Sigma (St Louis, Mo.). Bovine ovaries were collected from local abattoirs and transported to the laboratory in warm saline (30-35° C.). COCs were aspirated from antral follicles (3 to 5 mm diameter) using an 18-gauge needle and a 10-ml syringe containing ˜2 ml aspiration medium (Hepes-buffered. Tissue Cultured Medium-199; TCM-199. ICN Biochemicals, Irvine, Calif., USA) supplemented with 50 μg/ml kanamycin, 0.5 mM sodium pyruvate, 50 μg/ml heparin and 4 mg/ml fatty acid-free bovine serum albumin (FAF-BSA; ICPbio Ltd, Aukland, NZ). Intact COCs with compact cumulus vestments>˜5 cell layers and evenly pigmented cytoplasm were selected under a dissecting microscope and washed twice in Hepes-buffered TCM-199 and once in Hepes-buffered TCM-199 supplemented with 10% fetal calf serim (FCS) (Invitrogen, Carlsbad, Calif.). The basic medium for oocyte maturation was Bovine VitroMat (Cook Australia, Eight Mile Plains, Qld, Australia), a medium based on the ionic composition of bovine follicular fluid. […] Complexes were cultured in pre-equilibrated 300 ? l drops overlaid with mineral oil and incubated at 39° C. with 5% CO2 in humidified air for 24 hour. […]
Recombinant mouse GDF9 and recombinant ovine BMP15 were produced and partially purified in-house as previously described using transfected 293 human embryonic kidney cell lines (293H) originally donated by O. Ritvos (University of Helsinki). Control conditioned medium (hereafter designated ‘293H’) was produced from untransfected 293H cells and subjected to the same chromatography procedures as GDF9 and BMP15 conditioned media.
Consequently, SB-431542 potently antagonizes the ALK 4/5 ligands; TGF-β1, the activins and GDF9, without affecting BMP signalling (Inman et al., 2002; Gilchrist et al., 2006). […] Follistatin-288 was generously donated by S. Shimasaki (University of California San Diego, USA) and we have previously shown that this binding protein antagonizes the bioactivities of native OSFs and recombinant BMP15 in CCs.
In vitro production of embryos was undertaken using defined, serum-free media (Bovine Vitro series of media, Cook Australia). Frozen semen from a single bull of proven fertility was used in all experiments. Briefly, thawed semen was layered over a discontinuous (45%: 90%) Percoll gradient (Amersham Bioscience) and centrifuged (RT) for 20-25 mins at 700 g. The supernatant was removed and the sperm pellet was washed with 500 μl Bovine VitroWash (Cook Australia) and centrifuged for a further 5 minutes at 200 g. Spermatozoa were resuspended with IVF medium (Bovine VitroFert, Cook Australia), then added to the fertilization media drops (Bovine VitroFert, supplemented with 0.01 mM heparin, 0.2 mM penicillamine and 0.1 mM hypotaurine) at a final concentration of 1×106 spermatozoa/ml. COCs were inseminated at a density of 10 μl of IVF medium per COC for 24 h, at 39° C. in 6% CO2 in humidified air.
CCs were removed by gentle pipetting 23-24 h post insemination and five presumptive zygotes were transferred into 20 μl drops of pre-equilibrated Cook Bovine VitroCleave medium (Cook Australia) and cultured under mineral oil at 38.5° C. in 7% O2, 6% CO2, balance N2, for five days (day 1 to day 5).
On Day 5, embryos were transferred in groups of 5-6 to 20 μl drops of pre-equilibrated Bovine VitroBlast (Cook Australia) at 38.5° C. overlaid with mineral oil and cultured to Day 8. Embryos were assessed for quality at Day 8 according to the definitions presented in the Manual of the International Embryo Transfer Society (Stringfellow, 1998) and were performed independently and blinded by an experienced bovine embryologist.
Cell counts were performed using a modified version of the technique described by (Fouladi-Nashta et al., 2005). […]

Molecule	blastocyst yield (Experiment 2, 175 ng/ml GDF9, with or without 10% v/v BMP15)	blastocyst yields with exogenous factor	effect on cleavage rate	enhancement of development to the blastocyst stage compared to 293H-treated COCs (10% v/v BMP15 during IVM)	enhancement of development to the blastocyst stage compared to control COCs (10% v/v BMP15 during IVM)
B1	increased (P<0.05) blastocyst yield compared to 293H-treated COCs, but not compared to COCs cultured alone	increased blastocyst yields	did not significantly alter cleavage rates	–	–
B2	–	increased blastocyst yields	did not significantly alter cleavage rates	30%	16%
